Publication PMC2966067

Target: GST-Pin1 (UniProt Q13526)
Test: pull-down

Substance	percent reduction of binding against wild type (densitometry) [%]	percent of wild-type binding (densitometry) [%]
FLAG-MEF2C S98/110A (natural protein)	70	
FLAG-MEF2C S98A/S110A/S240A/S388A (natural protein)		10
